From the RNAGym collection of RNA variant scans (doi:10.1093/molbev/msab373)

B1: Azoarcus group I ribozyme (parent)
chain: GUGCCUUGCGCCGGGAAACCACGCAAGGGAUGGUGUCAAAUUCGGCGAAACCUAAGCGCCCGCCCGGGCGUAUGGCAACGCCGAGCCAAGCUUCGGCGCCUGCGCCGAUGAAGGUGUAGAGACUAGACGGCACCCACCUAAGGCAAACGCUAUGGUGAAGGCAUAGUCCAGGGAGUGGCGAAAGUCACACAAACCGG

Variants of: B1
Assay: reverse-splicing fitness (ratio to wild type); higher = more active; in vitro selection; Mg2+ level not given
Procedure, shortened: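 An in vitro group I ribozyme library with randomized positions was T7-transcribed and gel-purified. In triplicate, 10 pmol RNA in EPPS pH 7.5 was reacted with 50 pmoles of a 30-nt RNA substrate for 1 h at 37 °C across several added MgCl2 levels (1–48 mM), then stopped with EDTA. Products were reverse transcribed from a substrate-complementary primer, PCR-amplified and sequenced (HiSeq 4000). Fitness is a variant's read proportion after selection over that before, normalised to wild type.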

Variant	reverse-splicing fitness
C82U A120G A145C C150G C169A U176C	0.00565
C82U A120G A145C C150G C169A U176G	0.00406
C82U A120C A145G C150U C169A U176A	0.0152
C82U A120C A145G C150U C169A U176G	0.00464
C82U A120C A145G C150U C169A U176C	0.0131
C82U A120C A145U C150U C169G U176G	0.00405
C82U A120C A145U C150U C169G U176A	0.00914
C82U A120C A145U C150U C169G U176C	0.00724
C82U A120G A145G C169G U176G	0.00333
C82U A120G A145G C169G U176A	0.0223
C82U A120G A145G C169G U176C	0.0317
C82U A120C C150A U176G	0.00583
C82U A120C C150A U176C	0.0193
C82U A120C C150A U176A	0.0163
C82U A120G A145G C150G C169A U176A	0.0129
C82U A120G A145G C150G C169A U176G	0.00685
C82U A120G A145G C150G C169A U176C	0.0121
C82U A120G A145C C169U U176G	0.00314
C82U A120G A145C C169U U176A	0.0224
C82U A120G A145C C169U U176C	0.0127
C82U A120G A145G C150U C169U U176C	0.0164
C82U A120G A145G C150U C169U U176G	0.00441
C82U A120G A145G C150U C169U U176A	0.0207
C82U A120G A145G C150U C169A	0.0162

Variant	reverse-splicing fitness
C82U A120G A145G C150U C169G	0.0218
C82U A120G A145G C150U C169U	0.0183
C82U A120C A145G C150A C169G U176C	0.0219
C82U A120C A145G C150A C169G U176A	0.0157
C82U A120C A145G C150A C169G U176G	0.00377
C82U A120C A145U C150U C169G	0.00708
C82U A120C A145U C150U C169A	0.0082
C82U A120C A145U C150U C169U	0.0166
C82U A120C A145G C150U U176C	0.0637
C82U A120C A145G C150U U176A	0.0355
C82U A120C A145G C150U U176G	0.00907
C82U A120C C150U C169U U176C	0.0177
C82U A120C C150U C169U U176A	0.0176
C82U A120C C150U C169U U176G	0.00448
C82U A120G A145G C150A U176A	0.0092
C82U A120G A145G C150A U176G	0.00584
C82U A120G A145G C150A U176C	0.0182
C82U A120G A145G U176A	0.0128
C82U A120G A145G U176G	0.00485
C82U A120G A145G U176C	0.019
C82U A120G A145G C150G U176C	0.00995
C82U A120G A145G C150G U176G	0.00539
C82U A120G A145G C150G U176A	0.00607
C82U A120C C169A U176G	0.00409

Variant	reverse-splicing fitness
C82U A120C C169A U176C	0.0121
C82U A120C C169A U176A	0.0143
C82U A120C C150U C169A U176C	0.0107
C82U A120C C150U C169A U176G	0.00426
C82U A120C C150U C169A U176A	0.0158
C82U A120C A145G C150A U176C	0.0295
C82U A120C A145G C150A U176G	0.00716
C82U A120C A145G C150A U176A	0.0152
C82U A120C A145U C150A C169U U176G	0.00413
C82U A120C A145U C150A C169U U176A	0.0155
C82U A120C A145U C150A C169U U176C	0.0164
C82U A120C C150A C169G	0.00799
C82U A120C C150A C169U	0.0109
C82U A120C C150A C169A	0.00872
C82U A120C C150G C169U U176G	0.00422
C82U A120C C150G C169U U176A	0.00844
C82U A120C C150G C169U U176C	0.0136
C82U A120C A145U C150G C169U U176C	0.0116
C82U A120C A145U C150G C169U U176A	0.00974
C82U A120C A145U C150G C169U U176G	0.00467
C82U A120G	0.0259
C82U A120C A145C U176G	0.00964
C82U A120C A145G C150G U176A	0.00924
C82U A120C A145G C150G U176G	0.00605

Variant	reverse-splicing fitness
C82U A120C A145G C150G U176C	0.0157
C82U A120C C150U U176A	0.0291
C82U A120C C150U U176C	0.0444
C82U A120C C150U U176G	0.00855
C82U A120G A145G	0.0245
C82U A120G A145U	0.0237
C82U A120G A145C	0.0203
C82U A120C A145U C150G	0.0217
C82U A120C A145U C150U	0.109
C82U A120C A145U C150A	0.021
C82U A120C A145G C150U C169U U176C	0.0169
C82U A120C A145G C150U C169U U176A	0.0165
C82U A120C A145G C150U C169U U176G	0.00416
C82U A120C A145U U176C	0.0723
C82U A120C A145U U176G	0.0114
C82U A120C A145U U176A	0.0458
C82U A120C A145G	0.169
C82U A120C A145U	0.155
C82U A120G A145U C150A C169U U176A	0.022
C82U A120G A145U C150A C169U U176C	0.014
C82U A120C A145G C169G U176A	0.0152
C82U A120C A145G C169G U176G	0.00346
C82U A120C A145G C169G U176C	0.0181
C82U A120G A145C C150G C169U U176G	0.00443

Variant	reverse-splicing fitness
C82U A120G A145C C150G C169U U176C	0.0104
C82U A120G A145C C150G C169U U176A	0.0158
C82U A120C A145G C150A C169A U176G	0.00547
C82U A120C A145G C150A C169A U176C	0.0203
C82U A120C A145G C150A C169A U176A	0.0175
C82U A120C A145U C150U C169U U176A	0.0148
C82U A120C A145U C150U C169U U176C	0.0144
C82U A120C A145U C150U C169U U176G	0.00397
C82U A120C A145U C150G C169U	0.00863
C82U A120C A145U C150G C169G	0.0059
C82U A120C A145U C150G C169A	0.00827
C82U A120G A145C C150U	0.0102
C82U A120G A145C C150A	0.00664
C82U A120G A145C C150G	0.00804
C82U A120C C150A C169G U176C	0.0164
C82U A120C C150A C169G U176G	0.00373
C82U A120C C150A C169G U176A	0.0156
C82U A120G A145C C150A C169G	0.00758
C82U A120G A145C C150A C169U	0.00698
C82U A120G A145C C150A C169A	0.00745
C82U A120G A145G C150U C169A U176A	0.0153
C82U A120G A145G C150U C169A U176C	0.0154
C82U A120G A145G C150U C169A U176G	0.00486
C82U A120G A145C C169A	0.014

Variant	reverse-splicing fitness
C82U A120G A145C C169G	0.0218
C82U A120G A145C C169U	0.0172
C82U A120C C169G	0.00705
C82U A120C C169A	0.00809
C82U A120C C169U	0.0213
C82U A120C A145U C150A C169A U176A	0.0094
C82U A120C A145U C150A C169A U176G	0.00386
C82U A120C A145U C150A C169A U176C	0.00669
C82U A120C C169G U176A	0.0123
C82U A120C C169G U176G	0.00419
C82U A120C C169G U176C	0.0125
C82U A120G A145C C150U C169U U176G	0.00351
C82U A120G A145C C150U C169U U176A	0.0235
C82U A120G A145C C150U C169U U176C	0.00975
C82U A120G A145C C150G C169U	0.00822
C82U A120G A145C C150G C169A	0.00904
C82U A120G A145C C150G C169G	0.00837
C82U A120G A145G C150A C169A U176G	0.00457
C82U A120G A145G C150A C169A U176C	0.0191
C82U A120G A145G C150A C169A U176A	0.018
C82U A120C A145U C169G U176A	0.00692
C82U A120C A145U C169G U176C	0.00836
C82U A120C A145U C169G U176G	0.00338
C82U A120C C150U	0.0835

Variant	reverse-splicing fitness
C82U A120C C150G	0.0174
C82U A120C C150A	0.0251
C82U A120G A145U C150A C169A U176G	0.00335
C82U A120G A145U C150A C169A U176C	0.00898
C82U A120G A145U C150A C169A U176A	0.0112
C82U A120G A145C C150U C169A	0.00913
C82U A120G A145C C150U C169U	0.00884
C82U A120G A145C C150U C169G	0.00988
C82U A120C A145U C150G C169G U176G	0.00365
C82U A120C A145U C150G C169G U176A	0.00652
C82U A120C A145U C150G C169G U176C	0.00491
C82U A120G A145G C150A C169G U176A	0.0157
C82U A120G A145G C150A C169G U176G	0.00413
C82U A120G A145G C150A C169G U176C	0.0255
C82U A120C A145U C169U U176A	0.0169
C82U A120C A145U C169U U176C	0.0155
C82U A120C A145U C169U U176G	0.00405
C82U A120C A145G C150A C169U U176G	0.0043
C82U A120C A145G C150A C169U U176C	0.0166
C82U A120C A145G C150A C169U U176A	0.0136
C82U A120C A145G C150G C169U U176G	0.00619
C82U A120C A145G C150G C169U U176C	0.0111
C82U A120C A145G C150G C169U U176A	0.0113
